Measurements taken from PMC9352680, “A comprehensive thermodynamic model for RNA binding by the Saccharomyces cerevisiae Pumilio protein PUF4”.

target: T1, PUF4 RNA-binding domain (Saccharomyces cerevisiae, UniProt P25339 537-888); test: Mg; RNA-MaP; 20 mM Na-HEPES pH 7.4, 30 mM KOAc, 0.75 mM MgCl2, 0.1% Tween-20, 5% glycerol, 0.1 mg/mL BSA, 2 mM DTT; 25 C; 0.0125-409.6 nM protein; details: tags: N-His6-TEV cleaved; C-SNAP kept, Cy3B-labelled; label: tethered on chip by stalled RNA polymerase
T1 sequence: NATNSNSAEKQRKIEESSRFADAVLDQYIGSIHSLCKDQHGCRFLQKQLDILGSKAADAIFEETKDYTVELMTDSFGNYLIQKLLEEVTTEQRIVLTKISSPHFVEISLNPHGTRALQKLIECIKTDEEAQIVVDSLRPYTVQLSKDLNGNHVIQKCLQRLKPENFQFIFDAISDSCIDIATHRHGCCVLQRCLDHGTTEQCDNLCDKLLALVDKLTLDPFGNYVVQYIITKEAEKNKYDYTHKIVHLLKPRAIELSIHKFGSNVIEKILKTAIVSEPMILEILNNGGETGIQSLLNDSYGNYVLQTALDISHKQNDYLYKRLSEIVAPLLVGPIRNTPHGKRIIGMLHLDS

Binder | Kd [nM]
UCUCUUAGUAUAUAUAGCUCUCUU (ssRNA) [Id_ii_S1_P3E.3_K3.2_C3.2_[C-2A]_[T-1G]_H3.2_A3.1_F3.1_T3.2_[T9G]_[A10C]] | 494
UCUCUUUUUAUAUAUAAGUCUCUU (ssRNA) [Id_ii_S1_P3E.3_K3.2_C3.2_[C-2T]_H3.2_A3.1_F3.1_T3.2_[T9A]_[A10G]] | 1550
UCUCUUUAUAUAUAUAGUUCUCUU (ssRNA) [Id_ii_S1_P3E.3_K3.2_C3.2_[C-2T]_[T-1A]_H3.2_A3.1_F3.1_T3.2_[T9G]_[A10T]] | 140
UCUCUUUUUAUAUAUAUGUCUCUU (ssRNA) [Id_ii_S1_P3E.3_K3.2_C3.2_[C-2T]_H3.2_A3.1_F3.1_T3.2_[A10G]] | 1060
UCUCUUAGUAUAUAUACCUCUCUU (ssRNA) [Id_ii_S1_P3E.3_K3.2_C3.2_[C-2A]_[T-1G]_H3.2_A3.1_F3.1_T3.2_[T9C]_[A10C]] | 954
UCUCUUUAUAUAUAUAUCUCUCUU (ssRNA) [Id_ii_S1_P3E.3_K3.2_C3.2_[C-2T]_[T-1A]_H3.2_A3.1_F3.1_T3.2_[A10C]] | 370
UCUCUUUUUAUAUAUACUUCUCUU (ssRNA) [Id_ii_S1_P3E.3_K3.2_C3.2_[C-2T]_H3.2_A3.1_F3.1_T3.2_[T9C]_[A10T]] | 708
UCUCUUUGUAUAUAUAAGUCUCUU (ssRNA) [Id_ii_S1_P3E.3_K3.2_C3.2_[C-2T]_[T-1G]_H3.2_A3.1_F3.1_T3.2_[T9A]_[A10G]] | 8.25
UCUCUUUCUAUAUAUAUGUCUCUU (ssRNA) [Id_ii_S1_P3E.3_K3.2_C3.2_[C-2T]_[T-1C]_H3.2_A3.1_F3.1_T3.2_[A10G]] | 1210
UCUCUUUUUAUAUAUAAUUCUCUU (ssRNA) [Id_ii_S1_P3E.3_K3.2_C3.2_[C-2T]_H3.2_A3.1_F3.1_T3.2_[T9A]_[A10T]] | 968
UCUCUUUAUAUAUAUAUUUCUCUU (ssRNA) [Id_ii_S1_P3E.3_K3.2_C3.2_[C-2T]_[T-1A]_H3.2_A3.1_F3.1_T3.2_[A10T]] | 329
UCUCUUAGUAUAUAUAAAUCUCUU (ssRNA) [Id_ii_S1_P3E.3_K3.2_C3.2_[C-2A]_[T-1G]_H3.2_A3.1_F3.1_T3.2_[T9A]] | 877
UCUCUUGUUAUAUAUAUCUCUCUU (ssRNA) [Id_ii_S1_P3E.3_K3.2_C3.2_[C-2G]_H3.2_A3.1_F3.1_T3.2_[A10C]] | 24.8
UCUCUUUUUAUAUAUAGUUCUCUU (ssRNA) [Id_ii_S1_P3E.3_K3.2_C3.2_[C-2T]_H3.2_A3.1_F3.1_T3.2_[T9G]_[A10T]] | 272
UCUCUUACUAUAUAUACUUCUCUU (ssRNA) [Id_ii_S1_P3E.3_K3.2_C3.2_[C-2A]_[T-1C]_H3.2_A3.1_F3.1_T3.2_[T9C]_[A10T]] | 918
UCUCUUAGUAUAUAUAGUUCUCUU (ssRNA) [Id_ii_S1_P3E.3_K3.2_C3.2_[C-2A]_[T-1G]_H3.2_A3.1_F3.1_T3.2_[T9G]_[A10T]] | 156
UCUCUUAGUAUGUUAUCUCUU (ssRNA) [Ib_S1_P4E.1_K4.1_C4.1_H4.1_[T1A]_A4.1_[A6G]_F4.1_T4.1] | 1080
UCUCUUUUUAUAUAUAGCUCUCUU (ssRNA) [Id_ii_S1_P3E.3_K3.2_C3.2_[C-2T]_H3.2_A3.1_F3.1_T3.2_[T9G]_[A10C]] | 490
UCUCUUUUUAUAUAUAUCUCUCUU (ssRNA) [Id_ii_S1_P3E.3_K3.2_C3.2_[C-2T]_H3.2_A3.1_F3.1_T3.2_[A10C]] | 759
UCUCUUUAUAUAUAUAUGUCUCUU (ssRNA) [Id_ii_S1_P3E.3_K3.2_C3.2_[C-2T]_[T-1A]_H3.2_A3.1_F3.1_T3.2_[A10G]] | 427
UCUCUUUCUAUAUAUAUUUCUCUU (ssRNA) [Id_ii_S1_P3E.3_K3.2_C3.2_[C-2T]_[T-1C]_H3.2_A3.1_F3.1_T3.2_[A10T]] | 591

Binder | Kd [nM]
UCUCUUCGUAUGUUAUCUCUU (ssRNA) [Ib_S1_P4E.1_K4.1_C4.1_H4.1_[T1C]_A4.1_[A6G]_F4.1_T4.1] | > 2300
UCUCUUACUAUAUAUAGCUCUCUU (ssRNA) [Id_ii_S1_P3E.3_K3.2_C3.2_[C-2A]_[T-1C]_H3.2_A3.1_F3.1_T3.2_[T9G]_[A10C]] | 2200
UCUCUUACUAUAUAUACCUCUCUU (ssRNA) [Id_ii_S1_P3E.3_K3.2_C3.2_[C-2A]_[T-1C]_H3.2_A3.1_F3.1_T3.2_[T9C]_[A10C]] | 848
UCUCUUUGUAUAUAUAUUUCUCUU (ssRNA) [Id_ii_S1_P3E.3_K3.2_C3.2_[C-2T]_[T-1G]_H3.2_A3.1_F3.1_T3.2_[A10T]] | 5
UCUCUUUAUAUAUAUACUUCUCUU (ssRNA) [Id_ii_S1_P3E.3_K3.2_C3.2_[C-2T]_[T-1A]_H3.2_A3.1_F3.1_T3.2_[T9C]_[A10T]] | 172
UCUCUUGUUAUAUAUAUAUCUCUU (ssRNA) [Id_ii_S1_P3E.3_K3.2_C3.2_[C-2G]_H3.2_A3.1_F3.1_T3.2] | 41.1
UCUCUUUUUAUAUAUACGUCUCUU (ssRNA) [Id_ii_S1_P3E.3_K3.2_C3.2_[C-2T]_H3.2_A3.1_F3.1_T3.2_[T9C]_[A10G]] | 1560
UCUCUUUUUAUAUAUACAUCUCUU (ssRNA) [Id_ii_S1_P3E.3_K3.2_C3.2_[C-2T]_H3.2_A3.1_F3.1_T3.2_[T9C]] | 1210
UCUCUUAGUAUAUAUAUCUCUCUU (ssRNA) [Id_ii_S1_P3E.3_K3.2_C3.2_[C-2A]_[T-1G]_H3.2_A3.1_F3.1_T3.2_[A10C]] | 652
UCUCUUUCUAUAUAUAGUUCUCUU (ssRNA) [Id_ii_S1_P3E.3_K3.2_C3.2_[C-2T]_[T-1C]_H3.2_A3.1_F3.1_T3.2_[T9G]_[A10T]] | 771
UCUCUUAGUAUAUAUAUUUCUCUU (ssRNA) [Id_ii_S1_P3E.3_K3.2_C3.2_[C-2A]_[T-1G]_H3.2_A3.1_F3.1_T3.2_[A10T]] | 452
UCUCUUUGUAUAUAUAGCUCUCUU (ssRNA) [Id_ii_S1_P3E.3_K3.2_C3.2_[C-2T]_[T-1G]_H3.2_A3.1_F3.1_T3.2_[T9G]_[A10C]] | 3.66
UCUCUUAGUAAAUUAUCUCUU (ssRNA) [Ib_S1_P4E.1_K4.1_C4.1_H4.1_[T1A]_A4.1_[T5A]_F4.1_T4.1] | 491
UCUCUUUUUAUAUAUACCUCUCUU (ssRNA) [Id_ii_S1_P3E.3_K3.2_C3.2_[C-2T]_H3.2_A3.1_F3.1_T3.2_[T9C]_[A10C]] | 1430
UCUCUUUGUAUAUAUAGUUCUCUU (ssRNA) [Id_ii_S1_P3E.3_K3.2_C3.2_[C-2T]_[T-1G]_H3.2_A3.1_F3.1_T3.2_[T9G]_[A10T]] | 2.33
UCUCUUUCUAUAUAUAAUUCUCUU (ssRNA) [Id_ii_S1_P3E.3_K3.2_C3.2_[C-2T]_[T-1C]_H3.2_A3.1_F3.1_T3.2_[T9A]_[A10T]] | 1010
UCUCUUUGUAUUUUAUCUCUU (ssRNA) [Ic_S1_P4E.1_K4.1_C4.1_H4.1_A4.1_[A6T]_F4.1_T4.1] | 2.46
UCUCUUUGUAUAUAUAACUCUCUU (ssRNA) [Id_ii_S1_P3E.3_K3.2_C3.2_[C-2T]_[T-1G]_H3.2_A3.1_F3.1_T3.2_[T9A]_[A10C]] | 4.91
UCUCUUUGUAUAUAUACCUCUCUU (ssRNA) [Id_ii_S1_P3E.3_K3.2_C3.2_[C-2T]_[T-1G]_H3.2_A3.1_F3.1_T3.2_[T9C]_[A10C]] | 10
UCUCUUCGUAUAAUAUCUCUU (ssRNA) [Ib_S1_P4E.1_K4.1_C4.1_H4.1_[T1C]_A4.1_[T7A]_F4.1_T4.1] | 131
UCUCUUACUAUAUAUAUGUCUCUU (ssRNA) [Id_ii_S1_P3E.3_K3.2_C3.2_[C-2A]_[T-1C]_H3.2_A3.1_F3.1_T3.2_[A10G]] | 968

Binder | Kd [nM]
UCUCUUUAUAUAUAUACGUCUCUU (ssRNA) [Id_ii_S1_P3E.3_K3.2_C3.2_[C-2T]_[T-1A]_H3.2_A3.1_F3.1_T3.2_[T9C]_[A10G]] | 503
UCUCUUUUUAUAUAUAUUUCUCUU (ssRNA) [Id_ii_S1_P3E.3_K3.2_C3.2_[C-2T]_H3.2_A3.1_F3.1_T3.2_[A10T]] | 457
UCUCUUAGUAUUUUAUCUCUU (ssRNA) [Ib_S1_P4E.1_K4.1_C4.1_H4.1_[T1A]_A4.1_[A6T]_F4.1_T4.1] | 798
UCUCUUUCUAUAUAUACCUCUCUU (ssRNA) [Id_ii_S1_P3E.3_K3.2_C3.2_[C-2T]_[T-1C]_H3.2_A3.1_F3.1_T3.2_[T9C]_[A10C]] | 1390
UCUCUUUCUAUAUAUACGUCUCUU (ssRNA) [Id_ii_S1_P3E.3_K3.2_C3.2_[C-2T]_[T-1C]_H3.2_A3.1_F3.1_T3.2_[T9C]_[A10G]] | 1450
UCUCUUACUAUAUAUACAUCUCUU (ssRNA) [Id_ii_S1_P3E.3_K3.2_C3.2_[C-2A]_[T-1C]_H3.2_A3.1_F3.1_T3.2_[T9C]] | 1290
UCUCUUUGUAUAUAUAAUUCUCUU (ssRNA) [Id_ii_S1_P3E.3_K3.2_C3.2_[C-2T]_[T-1G]_H3.2_A3.1_F3.1_T3.2_[T9A]_[A10T]] | 8.44
UCUCUUUGUAUAUAUAUCUCUCUU (ssRNA) [Id_ii_S1_P3E.3_K3.2_C3.2_[C-2T]_[T-1G]_H3.2_A3.1_F3.1_T3.2_[A10C]] | 3.36
UCUCUUUCUAUAUAUACAUCUCUU (ssRNA) [Id_ii_S1_P3E.3_K3.2_C3.2_[C-2T]_[T-1C]_H3.2_A3.1_F3.1_T3.2_[T9C]] | 1030
UCUCUUUAUAUAUAUAAUUCUCUU (ssRNA) [Id_ii_S1_P3E.3_K3.2_C3.2_[C-2T]_[T-1A]_H3.2_A3.1_F3.1_T3.2_[T9A]_[A10T]] | 642
UCUCUUACUAUAUAUAAAUCUCUU (ssRNA) [Id_ii_S1_P3E.3_K3.2_C3.2_[C-2A]_[T-1C]_H3.2_A3.1_F3.1_T3.2_[T9A]] | 1360
UCUCUUCGUAUUUUAUCUCUU (ssRNA) [Ib_S1_P4E.1_K4.1_C4.1_H4.1_[T1C]_A4.1_[A6T]_F4.1_T4.1] | 591
UCUCUUUUUAUAUAUAUAUCUCUU (ssRNA) [Id_ii_S1_P3E.3_K3.2_C3.2_[C-2T]_H3.2_A3.1_F3.1_T3.2] | 510
UCUCUUUCUAUAUAUAUCUCUCUU (ssRNA) [Id_ii_S1_P3E.3_K3.2_C3.2_[C-2T]_[T-1C]_H3.2_A3.1_F3.1_T3.2_[A10C]] | 602
UCUCUUAGUAUAUAUAUGUCUCUU (ssRNA) [Id_ii_S1_P3E.3_K3.2_C3.2_[C-2A]_[T-1G]_H3.2_A3.1_F3.1_T3.2_[A10G]] | 502
UCUCUUUAUAUAUAUAGCUCUCUU (ssRNA) [Id_ii_S1_P3E.3_K3.2_C3.2_[C-2T]_[T-1A]_H3.2_A3.1_F3.1_T3.2_[T9G]_[A10C]] | 148
UCUCUUACUAUAUAUAUCUCUCUU (ssRNA) [Id_ii_S1_P3E.3_K3.2_C3.2_[C-2A]_[T-1C]_H3.2_A3.1_F3.1_T3.2_[A10C]] | 886
UCUCUUUCUAUAUAUAACUCUCUU (ssRNA) [Id_ii_S1_P3E.3_K3.2_C3.2_[C-2T]_[T-1C]_H3.2_A3.1_F3.1_T3.2_[T9A]_[A10C]] | 960
UCUCUUUCUAUAUAUAGCUCUCUU (ssRNA) [Id_ii_S1_P3E.3_K3.2_C3.2_[C-2T]_[T-1C]_H3.2_A3.1_F3.1_T3.2_[T9G]_[A10C]] | 620
UCUCUUUGUAUAUAUAUGUCUCUU (ssRNA) [Id_ii_S1_P3E.3_K3.2_C3.2_[C-2T]_[T-1G]_H3.2_A3.1_F3.1_T3.2_[A10G]] | 4.85
UCUCUUUAUAUAUAUACAUCUCUU (ssRNA) [Id_ii_S1_P3E.3_K3.2_C3.2_[C-2T]_[T-1A]_H3.2_A3.1_F3.1_T3.2_[T9C]] | 384
